The results in this text go back to paper PMC3134789.

Data set [1] concerns the target Nova-1 KH2 domain (individual domain). Nature of the data set: SEC.
For data set [2] the target is unchanged. Nature of the data set: AUC.
Another data set has as its target T1, Nova-1 KH2 (UniProt Q9JKN6 171-237).
T1 sequence: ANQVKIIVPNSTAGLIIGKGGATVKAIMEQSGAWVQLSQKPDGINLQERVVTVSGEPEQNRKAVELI
The data set can be described thus: NMR.

Chain of Nova-1 KH2 domain (individual domain) (domain or fragment) (P51513 44-493): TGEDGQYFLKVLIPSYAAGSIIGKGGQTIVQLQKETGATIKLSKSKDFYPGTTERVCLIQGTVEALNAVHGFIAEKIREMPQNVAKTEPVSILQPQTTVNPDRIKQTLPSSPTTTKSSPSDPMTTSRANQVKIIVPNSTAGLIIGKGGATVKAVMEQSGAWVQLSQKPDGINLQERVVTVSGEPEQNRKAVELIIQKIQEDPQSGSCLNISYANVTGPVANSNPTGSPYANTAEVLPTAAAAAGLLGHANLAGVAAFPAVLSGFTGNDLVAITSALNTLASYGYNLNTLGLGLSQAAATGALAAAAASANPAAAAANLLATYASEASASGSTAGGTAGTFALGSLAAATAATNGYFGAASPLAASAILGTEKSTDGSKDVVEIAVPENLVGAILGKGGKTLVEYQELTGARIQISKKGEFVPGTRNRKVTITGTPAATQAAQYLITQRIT

Regarding “Nova-1 KH2 domain (individual domain) (domain or fragment)”, the stoichiometry N in data set [1] and in data set [2] was 2 in each case.

On to UCAC (ssRNA) [UCAC tetranucleotide], for which the binding result with Nova-1 KH2 is “binds”.
